From US20230416363A1 (KADMON, published 2023) come the findings set out here.

The term IC50 denotes the concentration at which inhibition is half-maximal. A word on the EC50: it is the concentration that produces a half-maximal response. The term Kd denotes a measure of binding affinity in units of concentration. Read a low Kd as a tighter complex. As a reminder, the koff is a measure of how fast the partners let go of each other. A lower koff goes with slow dissociation. In general, kon refers to the second-order rate constant of association. A low value points to slower complex formation.

Where only a bound is given, the exact number is not on record here.

The target of assay [1] is T1, mPD1 (soluble, ELISA of Examples 20 and 24) (mouse, UniProt Q02242 25-167, limits assumed).
T1 construct: also called Biotin-mPD1
T1 sequence (looked up): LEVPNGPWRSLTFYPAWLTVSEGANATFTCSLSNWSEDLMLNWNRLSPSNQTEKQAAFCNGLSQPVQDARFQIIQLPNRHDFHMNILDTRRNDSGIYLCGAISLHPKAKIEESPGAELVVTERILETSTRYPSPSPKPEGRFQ
Briefly: blocking ELISA, mPD1 to mPDL1. In general terms: An ELISA detects its analyte on a solid surface through an enzyme-linked reagent.

Assay [2] addresses T2, hPD1 (soluble, ELISA of Example 20) (human, UniProt Q15116 25-167, limits assumed). The assay is described as follows: blocking ELISA, hPD1 to hPDL1.
For assay [3], the target named is T3, human PD-1 expressed on cells (human, UniProt Q15116 25-288). Briefly: cell-based or functional assay.
The target in assay [4] is T4, mouse PD-1 expressed on cells (mouse, UniProt Q02242 25-288).
T4 sequence (looked up): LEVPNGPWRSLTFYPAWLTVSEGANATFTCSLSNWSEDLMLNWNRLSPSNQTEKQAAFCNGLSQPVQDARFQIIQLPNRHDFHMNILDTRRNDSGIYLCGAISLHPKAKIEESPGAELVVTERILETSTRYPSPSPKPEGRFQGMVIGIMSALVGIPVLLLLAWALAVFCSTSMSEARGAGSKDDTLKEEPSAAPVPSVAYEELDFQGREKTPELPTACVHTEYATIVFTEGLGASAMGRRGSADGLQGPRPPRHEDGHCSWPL
Briefly: cell-based or functional assay.

Assay [5] addresses T2, hPD1 (soluble, ELISA of Example 20). Briefly: ELISA, hPD1.
Assay [6] deals with T4, mouse PD-1 expressed on cells. The assay is described as follows: flow cytometry, mPD1-293 cells. Background: A flow cytometer gives signals particle by particle.
For another assay, the target named is T5, mPD-1-his (mouse, UniProt Q02242 25-167, limits assumed).
T5 construct: domain: IgV domain
T5 sequence: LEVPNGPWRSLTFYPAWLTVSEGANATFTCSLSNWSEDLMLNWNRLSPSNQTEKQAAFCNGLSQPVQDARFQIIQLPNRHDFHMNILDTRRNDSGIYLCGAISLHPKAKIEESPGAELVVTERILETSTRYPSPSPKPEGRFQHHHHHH
The assay is described as follows: SPR Biacore, mPD1-his.

Assay [7] concerns the target T1, mPD1 (soluble, ELISA of Examples 20 and …). Briefly: ELISA, mPD1.
The target of assay [8] is T6, mPD-1-Fc (mouse; human, UniProt Q02242 25-167, limits assumed).
T6 construct: domain: IgV domain; not shown: human IgG1 Fc
T6 sequence (looked up): T1 sequence (looked up)
Briefly: SPR Biacore, mPD1-Fc. For orientation: In SPR one partner is held on a chip, and binding of the other changes the refractive index at the surface.

The target of assay [9] is T4, mouse PD-1 expressed on cells. The assay is described as follows: flow cytometry, mPD1-eff cells.
Assay [10] has as its target T7, hPD-1-Fc (human, UniProt Q15116 25-167).
T7 construct: domain: IgV domain; also called human PD-1-Fc; not shown: human IgG1 Fc
The assay is described as follows: SPR Biacore, hPD1-Fc.

Assay [11] addresses T3, human PD-1 expressed on cells. Briefly: flow cytometry, hPD1-293 cells.
Assay [12] addresses T1, mPD1 (soluble, ELISA of Examples 20 and …). The assay is described as follows: ELISA, biotin-mPD1 on streptavidin.
For assay [13], the target named is T6, mPD-1-Fc. The assay is described as follows: blocking ELISA, mPD-1 to PD-L1.
Assay [14] addresses T3, human PD-1 expressed on cells. Briefly: flow cytometry, SEB-activated PBMC donor.
Assay [15] deals with T7, hPD-1-Fc. Briefly: SPR, range over experiments.
For assay [16], the target named is T7, hPD-1-Fc. Briefly: blocking ELISA, PD-1 to PD-L2.
Assay [17] addresses T7, hPD-1-Fc. Briefly: SPR Biacore T200, PD-1-Fc immobilised.
For assay [18], the target named is T8, hPD-1-his (human, UniProt Q15116 25-167).
T8 construct: domain: IgV domain; monomer in solution; biotin-labelled where captured by streptavidin; also called biotin-hPD-1-his
The assay is described as follows: SPR, Exp. 4.

Assay [19] has as its target T3, human PD-1 expressed on cells. Briefly: flow cytometry, activated PBMC donor two.
For assay [20], the target named is T7, hPD-1-Fc. The assay is described as follows: SPR, Exp. 3.
Assay [21] concerns the target T8, hPD-1-his. Briefly: SPR, Exp. 3.
Assay [22] deals with T3, human PD-1 expressed on cells. The assay is described as follows: flow cytometry, hPD-1-293 cells.
Assay [23] has as its target T7, hPD-1-Fc. The assay is described as follows: SPR, Exp. 1.
For assay [24], the target named is T8, hPD-1-his. The assay is described as follows: SPR, Exp. 1.
Assay [25] deals with T7, hPD-1-Fc. The assay is described as follows: blocking ELISA, PD-1 to PD-L1.
Assay [26] deals with T8, hPD-1-his. The assay is described as follows: ELISA, hPD-1-his on anti-his.
Assay [27] concerns the target T3, human PD-1 expressed on cells. The assay is described as follows: flow cytometry, hPD-1-Jurkat cells.
Assay [28] shares this target. The assay is described as follows: cell-based or functional assay. The source holds these as a separate data set.
Assay [29] shares this target. The assay is described as follows: flow cytometry, activated PBMC donor FA.
The target is the same in assay [30]. The assay is described as follows: flow cytometry, hPD1-Jurkat cells.
In assay [31] the target is T8, hPD-1-his. The assay is described as follows: ELISA, biotin-hPD-1-his on streptavidin.
In assay [32] the target is T7, hPD-1-Fc. Briefly: ELISA, hPD1-Fc coated.
The target of assay [33] is T8, hPD-1-his. The assay is described as follows: SPR Biacore T200, PD-1-his immobilised.
The target of assay [34] is T7, hPD-1-Fc. Briefly: ELISA, PD-1-Fc coated.
Assay [35] addresses T3, human PD-1 expressed on cells. Briefly: flow cytometry, SEB-activated PBMC donor two.
Assay [36] concerns the target T8, hPD-1-his. The assay is described as follows: ELISA, PD-1-his on anti-his.
Assay [37] addresses T7, hPD-1-Fc. The assay is described as follows: blocking ELISA, hPD-1-Fc to hPD-L1-Fc.
Assay [38] has as its target T3, human PD-1 expressed on cells. The assay is described as follows: flow cytometry, hPD1-293 cells. The source holds these as a separate data set.
Assay [39] addresses T8, hPD-1-his. The assay is described as follows: ELISA, biotin-PD-1-his on streptavidin.
Assay [40] has as its target T7, hPD-1-Fc. Briefly: SPR, Exp. 2.
Assay [41] addresses T8, hPD-1-his. Briefly: SPR, Exp. 2.

T3 sequence (Q15116 25-288): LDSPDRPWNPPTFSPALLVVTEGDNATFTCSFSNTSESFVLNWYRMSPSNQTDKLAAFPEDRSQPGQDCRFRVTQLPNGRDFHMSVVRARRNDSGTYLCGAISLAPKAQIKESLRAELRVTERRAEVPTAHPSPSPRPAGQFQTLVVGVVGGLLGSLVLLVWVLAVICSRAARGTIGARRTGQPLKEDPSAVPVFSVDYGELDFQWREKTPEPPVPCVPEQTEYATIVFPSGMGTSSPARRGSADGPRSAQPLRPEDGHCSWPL
T8 sequence (Q15116 other isoform, or with tags, fused parts or gaps limits assumed): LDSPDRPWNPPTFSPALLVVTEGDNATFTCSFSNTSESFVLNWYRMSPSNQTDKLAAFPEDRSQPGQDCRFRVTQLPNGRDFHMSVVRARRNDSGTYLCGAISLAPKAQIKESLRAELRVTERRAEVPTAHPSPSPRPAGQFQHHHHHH
T7 sequence (Q15116 25-167 limits assumed): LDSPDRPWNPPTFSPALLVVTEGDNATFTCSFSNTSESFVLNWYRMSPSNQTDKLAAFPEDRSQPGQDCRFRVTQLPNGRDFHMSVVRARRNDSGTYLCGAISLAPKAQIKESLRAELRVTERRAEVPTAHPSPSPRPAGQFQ
T2 sequence (Q15116 25-167 limits assumed): as above

B1: m2C1 (antibody, V domains shown)
VH: QVQLVQSGAEVKKPGASVKVSCKASGHTFTSYYIHWVRQAPGQGLEWMGIINPSGGSTSYAQKFQGRVTMTRDTSTSTVYMELSSLRSEDTAVYYCARDRAYGGAGDYWGQGTLVTVSS
VL: DIQMTQSPSSLSASVGDRVTITCRASRSISSWLAWYQQKPGKAPKLLIYAASSLQSGVPSRFSGSGSGTDFTLTISSLQPEDFATYYCQQSYSIPATFGQGTKVEIK
notes: R3A9 derivative; also called m3CM (apparent misprint)
As for B1, the IC50 in assay [1] amounted to 464 pM; in assay [2], 5710 pM. The “IC50, Promega blockade bioassay” value in assay [3] worked out at 31200 pM; in assay [4], 1130 pM. Further, the half-maximal effective concentration (EC50) came out at 149 pM in assay [5]; 411 pM in assay [6]; 572 pM in assay [7]; 373 pM in assay [9]; 1260 pM in [11]; 291 pM in assay [12]. For the same molecule, the Kd with mPD-1-his came out at 3220 pM; with mPD-1-Fc [8], 2910 pM; with hPD-1-Fc [10] it was 2810 pM. Further, the koff with mPD-1-his was 0.000693 s⁻¹; with mPD-1-Fc [8], 0.000583 s⁻¹; with hPD-1-Fc [10], 0.000355 s⁻¹. Besides, the kon with mPD-1-his is 215000 M⁻¹ s⁻¹; with mPD-1-Fc [8], 200000 M⁻¹ s⁻¹; in the assay with hPD-1-Fc [10] it was 126000 M⁻¹ s⁻¹.

B2: RMP1-14 (antibody, V domains shown)
VH: EVQLQESGPGLVKPSQSLSLTCSVTGYSITSSYRWNWIRKFPGNRLEWMGYINSAGISNYNPSLKRRISITRDTSKNQFFLQVNSVTTEDAATYYCARSDNMGTTPFTYWGQGTLVTVSS
VL: DIVMTQGTLPNPVPSGESVSITCRSSKSLLYSDGKTYLNWYLQRPGQSPQLLIYWMSTRASGVSDRFSGSGSGTDFTLKISGVEAEDVGIYYCQQGLEFPTFGGGTKLELK
Take B2: the midpoint of inhibition with mPD-1-Fc [13], the IC50, lay at 635 pM.

B3: 33C4 (antibody, V domains shown)
VH: QVQLVQSGAEVKKPGSSVKVSCKASGGTFSSSVISWVRQAPGQGLEWMGGIIPIFGTANYAQKFQGRVTITADESTSTAYMELSSLRSEDTAVYYCAREGLGCSGGSCYSGYYYGMDVWGQGTTVTVSS
VL: DIVMTQSPLSLPVTPGEPASISCRSSQSLLHSNGYNYLDWYLQKPGQSPQLLIYEASSLHTGVPDRFSGSGSGTDFTLKISRVEAEDVGVYYCMQGSHWPYTFGQGTKLEIK
notes: also called 780_39
As for B3, the “MFI, 5 nM” value was 77.8 MFI in [14], 179 MFI in assay [22], 65.2 MFI in assay [27] and 66.9 MFI in assay [35]. Besides, the Kd in the assay with hPD-1-Fc [15] was 10 to 20 pM; in the assay with hPD-1-Fc [17], 575 pM; with hPD-1-his [18], less than 54 pM; with hPD-1-Fc [20], less than 10 pM; with hPD-1-his [21], 274 pM; in the assay with hPD-1-Fc [23], less than 22 pM. The dissociation constant Kd was 704 pM with hPD-1-his [24], 6730 pM in the assay with hPD-1-his [33], less than 10 pM with hPD-1-Fc [40] and 205 pM with hPD-1-his [41]. The half-maximal inhibitory concentration (IC50) with hPD-1-Fc [16] was 3300 pM; in the assay with hPD-1-Fc [25] it was 2770 pM; in the assay with hPD-1-Fc [37], 2060 pM. The “Inhibition, % at 3.7 nM” value with hPD-1-Fc [16] was 53.4%. The “Inhibition, % at 100 nM” value with hPD-1-Fc [16] came out at 94.6%. The 50% effective concentration (EC50) was found to be 50 pM in [19]; 61 pM with hPD-1-his [26]; 41 pM in assay [29]; 84 pM in assay [30]; 209 pM with hPD-1-his [31]; 177 pM in the assay with hPD-1-Fc [32]. For the same molecule, the 50% effective concentration (EC50) with hPD-1-Fc [34] is 128 pM; with hPD-1-his [36] it was 142 pM; in [38], 75 pM; with hPD-1-his [39], 131 pM. Further, the “MFI at 25 nM” value came to 18.7 MFI in assay [19] and 17.6 MFI in [29]. The figures for the “Inhibition % at 50 nM” value with hPD-1-Fc [25] and with hPD-1-Fc [37] were 93.3% and 92.5%, respectively. In addition, the “Inhibition, % at 5.56 nM” value in the assay with hPD-1-Fc [25] came to 88.9%. In addition, the “OD450 at 10 nM” value with hPD-1-his [26] stood at 0.578 OD450; with hPD-1-his [31], 0.95 OD450; in the assay with hPD-1-Fc [32] it was 0.925 OD450. The “EC50, Promega blockade bioassay” value in [28] worked out at 0.165 µg/mL. In assay [28], this molecule came in with a Fold induction of 6.24 fold. Further, the results for the “MFI at 5 nM” value in assay [30] and in assay [38] were 98.3 MFI and 48.2 MFI, respectively. Moreover, the “Inhibition % at 5.6 nM” value with hPD-1-Fc [37] came out at 91.2%.
